Experimental data from the supplement of paper PMC10567573.

B1: POMT2 (parent)
chain: VKYNSCADRPFSAPWWFWLSLTGV
B2: WDR88 (parent)
chain: LLTITKAHSNAISNCCFTFSGHFL
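Also: lentivirally expressed fusions sorted by FACS into six bins by GFP to DsRed ratio, PSI derived from sequencing read proportions per bin multiplied by bin number.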

Variants of: B1
Experiment: protein stability index of a GFP-peptide fusion (GPS, HEK-293T) (PSI 1-6); higher = more stable
Conditions: c terminus: a fixed tail appended
Work on P10K yielded a protein stability index of 4.18. Work on T22N yielded a protein stability index of 1.29. For W15K, the protein stability index was 3.58. For C6W, the protein stability index was 1. Work on C6S yielded a protein stability index of 2.14. For D8L, the protein stability index was 3. Work on P14R yielded a protein stability index of 3.92. Work on W18G yielded a protein stability index of 3.3.

Variants of: B2
Experiment: as above
Conditions: c terminus: a fixed tail appended
With I4T the protein stability index was 2.8. Work on I4P yielded a protein stability index of 2.15. For I4M, the protein stability index was 3.12. I4R showed a protein stability index of 2.4. In the case of I4S, the protein stability index is reported as 2.5. Variant I4D has a protein stability index of 3.07. Variant I4F has a protein stability index of 3.68. I4N gave a protein stability index of 2.89. Variant I4G has a protein stability index of 1.9. With I4A the protein stability index was 2.47. I4Q showed a protein stability index of 1.8. In the case of I4E, the protein stability index is reported as 1.99. I4L showed a protein stability index of 2.9. For I4V, the protein stability index was 3.9. For I4C, the protein stability index was 2.19. In the case of I4K, the protein stability index is reported as 2.5. For I4H, the protein stability index was 2.36. Variant I4Y has a protein stability index of 2.38. S9D showed a protein stability index of 3.12. S9C showed a protein stability index of 1.89. S9N showed a protein stability index of 3.57. For S9F, the protein stability index was 4.2. S9M gave a protein stability index of 2.31. For S9A, the protein stability index was 3.55. For S9H, the protein stability index was 2.45. S9K showed a protein stability index of 2.83. In the case of S9P, the protein stability index is reported as 2.39. With S9I the protein stability index was 2.46. S9G gave a protein stability index of 2.8. For S9L, the protein stability index was 2.95. Variant L1S has a protein stability index of 1.76. Variant L1E has a protein stability index of 1.76. With L1V the protein stability index was 2.93. L1Q gave a protein stability index of 1.59. L1P gave a protein stability index of 2.81. Work on L1F yielded a protein stability index of 2.52. With L1R the protein stability index was 2.75. For L1A, the protein stability index was 3.61. In the case of L1D, the protein stability index is reported as 1.67. For L1I, the protein stability index was 4.01. For L1G, the protein stability index was 1.49. With L1Y the protein stability index was 4.04. L1H gave a protein stability index of 2.46. L1T gave a protein stability index of 3.09. In the case of L1K, the protein stability index is reported as 1.85. For L1W, the protein stability index was 3.03. For L1M, the protein stability index was 1.95. L1C showed a protein stability index of 2.81. In the case of L1N, the protein stability index is reported as 2.47. K6Y gave a protein stability index of 1.83. K6N showed a protein stability index of 3.18. With K6S the protein stability index was 2.44. With K6T the protein stability index was 2.78. K6H showed a protein stability index of 3.03. Work on K6M yielded a protein stability index of 2.66. For K6I, the protein stability index was 2.88. In the case of K6W, the protein stability index is reported as 3.12. In the case of K6A, the protein stability index is reported as 2.8. For K6D, the protein stability index was 1.83. In the case of K6F, the protein stability index is reported as 3.35. For K6V, the protein stability index was 2.84. For K6R, the protein stability index was 2.72. Variant K6E has a protein stability index of 2.67. Variant K6P has a protein stability index of 3.02. Variant K6L has a protein stability index of 3.35. K6Q gave a protein stability index of 2.29. For K6G, the protein stability index was 2.44. K6C showed a protein stability index of 2.9. Variant L2N has a protein stability index of 2.82. Variant L2D has a protein stability index of 1.4. Variant L2F has a protein stability index of 2.44. For L2E, the protein stability index was 1.57. L2V gave a protein stability index of 2.33. For L2W, the protein stability index was 3.22. L2Q gave a protein stability index of 2.75. L2I gave a protein stability index of 3.28. Variant L2K has a protein stability index of 2.85. With L2S the protein stability index was 2.4. Variant L2P has a protein stability index of 2.12. L2G gave a protein stability index of 2.01. For L2H, the protein stability index was 2.28. L2M gave a protein stability index of 2.53. Variant L2R has a protein stability index of 2.41. Work on L2C yielded a protein stability index of 2.18. L2Y showed a protein stability index of 2.1. Variant L2A has a protein stability index of 3.15. In the case of L2T, the protein stability index is reported as 2.71. For T3A, the protein stability index was 2.93. Variant T3E has a protein stability index of 2.47. With T3I the protein stability index was 2.74. With T3F the protein stability index was 3.14. T3G gave a protein stability index of 1.94. Variant T3W has a protein stability index of 2.29. For T3L, the protein stability index was 2.37. T3H gave a protein stability index of 2.57. In the case of T3S, the protein stability index is reported as 3.22. Work on T3V yielded a protein stability index of 3.68. In the case of T3D, the protein stability index is reported as 2.61. In the case of T3M, the protein stability index is reported as 3.13. In the case of T3C, the protein stability index is reported as 2.84. T3Q gave a protein stability index of 3.3. With T3Y the protein stability index was 2.92. T3N showed a protein stability index of 3. Variant T3P has a protein stability index of 2.97. In the case of A7V, the protein stability index is reported as 2.76. A7P gave a protein stability index of 2.04. With A7H the protein stability index was 3.42. In the case of A7T, the protein stability index is reported as 2.58. For A7W, the protein stability index was 4.07. In the case of A7S, the protein stability index is reported as 2.54. For A7K, the protein stability index was 2.4. Work on A7R yielded a protein stability index of 3.62. A7N gave a protein stability index of 2.1. A7G showed a protein stability index of 3.76. For A7Y, the protein stability index was 3.09. Work on A7D yielded a protein stability index of 1.86. With A7F the protein stability index was 2.86. A7I showed a protein stability index of 2.95. In the case of A7Q, the protein stability index is reported as 3.22. A7M showed a protein stability index of 2.8. Variant A7L has a protein stability index of 3.04. A7C gave a protein stability index of 2.75. Work on A7E yielded a protein stability index of 3.31. In the case of H8W, the protein stability index is reported as 2.17. For H8Y, the protein stability index was 4.38. Variant H8T has a protein stability index of 2.38. H8L showed a protein stability index of 3.6. Variant H8K has a protein stability index of 3.13. Work on H8C yielded a protein stability index of 2.53. With H8P the protein stability index was 2.35. Variant H8F has a protein stability index of 2.59. H8I gave a protein stability index of 2.57. With H8Q the protein stability index was 2.24. H8E gave a protein stability index of 2.27. For H8S, the protein stability index was 2.6. For H8R, the protein stability index was 3.29. For H8D, the protein stability index was 3.88. With H8N the protein stability index was 2.03. In the case of H8V, the protein stability index is reported as 2.58. For H8G, the protein stability index was 3.56. H8A gave a protein stability index of 3.08. With T5F the protein stability index was 4.83. Variant T5L has a protein stability index of 2.03. In the case of T5D, the protein stability index is reported as 1.65. For T5V, the protein stability index was 3.03. With T5I the protein stability index was 2.02. T5R showed a protein stability index of 2.72. T5C showed a protein stability index of 2.54. Variant T5H has a protein stability index of 2.9. T5E showed a protein stability index of 2.58. Variant T5M has a protein stability index of 3.85. T5K gave a protein stability index of 2.37. In the case of T5G, the protein stability index is reported as 2.73. In the case of T5Y, the protein stability index is reported as 3.34. For T5N, the protein stability index was 1.67. With T5A the protein stability index was 3.41. T5P gave a protein stability index of 2.98. Variant T5S has a protein stability index of 3.33. For T5Q, the protein stability index was 1.69.
